In patent US7192735:

Molecular target: EntF (E. coli enterobactin synthetase component), apo form, P11454
Sequence (P11454 whole entry): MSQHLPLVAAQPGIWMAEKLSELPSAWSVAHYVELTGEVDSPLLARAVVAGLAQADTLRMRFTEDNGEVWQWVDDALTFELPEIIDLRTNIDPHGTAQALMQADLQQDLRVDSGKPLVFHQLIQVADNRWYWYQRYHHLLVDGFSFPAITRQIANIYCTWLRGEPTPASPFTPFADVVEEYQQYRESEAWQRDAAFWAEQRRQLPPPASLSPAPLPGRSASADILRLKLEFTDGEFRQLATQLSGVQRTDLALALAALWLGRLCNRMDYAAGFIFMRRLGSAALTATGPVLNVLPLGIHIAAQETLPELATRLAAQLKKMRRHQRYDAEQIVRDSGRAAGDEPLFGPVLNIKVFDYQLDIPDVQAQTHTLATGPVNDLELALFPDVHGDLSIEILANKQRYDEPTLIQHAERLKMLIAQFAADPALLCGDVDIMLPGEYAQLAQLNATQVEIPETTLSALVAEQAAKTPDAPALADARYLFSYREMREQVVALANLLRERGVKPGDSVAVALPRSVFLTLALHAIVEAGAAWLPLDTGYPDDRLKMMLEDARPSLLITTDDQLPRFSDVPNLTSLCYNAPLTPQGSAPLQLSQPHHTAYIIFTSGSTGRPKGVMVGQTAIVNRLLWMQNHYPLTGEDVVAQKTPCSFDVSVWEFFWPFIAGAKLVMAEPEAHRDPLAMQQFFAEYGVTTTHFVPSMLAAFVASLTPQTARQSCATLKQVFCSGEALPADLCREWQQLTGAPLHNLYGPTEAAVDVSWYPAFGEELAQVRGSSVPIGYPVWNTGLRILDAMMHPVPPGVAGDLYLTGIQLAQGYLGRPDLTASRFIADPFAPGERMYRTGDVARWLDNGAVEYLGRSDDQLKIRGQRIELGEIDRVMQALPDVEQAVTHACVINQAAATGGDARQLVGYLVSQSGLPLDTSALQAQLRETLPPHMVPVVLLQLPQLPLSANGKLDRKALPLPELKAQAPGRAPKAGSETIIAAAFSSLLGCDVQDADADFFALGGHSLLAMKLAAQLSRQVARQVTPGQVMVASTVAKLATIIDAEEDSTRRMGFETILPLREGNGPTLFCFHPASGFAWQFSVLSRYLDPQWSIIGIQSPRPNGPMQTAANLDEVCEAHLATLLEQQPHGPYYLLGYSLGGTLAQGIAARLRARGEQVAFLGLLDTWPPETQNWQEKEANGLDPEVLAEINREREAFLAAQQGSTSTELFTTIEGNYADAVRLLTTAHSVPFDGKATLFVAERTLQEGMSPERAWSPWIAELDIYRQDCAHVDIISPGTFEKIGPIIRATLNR

B1: o195 (E. coli ORF of unknown function), recombinant from pET28b-o195 (protein)
chain: MYRIVLGKVSTLSAAPLPPGLREQAPQGPRRERWLAGRALLSHTLSPLPEIIYGEQGKPAFAPEMPLWFNLSHSGDDIALLLSDEGEVGCDIEVIRPRANWRWLANAVFSLGEHAEMDAVHPDQQLEMFWRIWTRKEAIVKQRGGSAWQIVSVDSTYHSSLSVSHCQLENLSLAICTPTPFTLTADSVQWIDSVN
- time course of incorporation of radiolabel into EntF: EntF undergoes almost no modification in the presence of 15-fold higher concentrations of ACPS and o195
